Blank lines part the entries; values can stand above or below the substance they belong to.
Columns and labels:
Assay in all cases: not stated; tetrameric assembly of the BRIL-KcsA linker constructs; how it was judged is not told
[1] = molecular target: BRIL-2turn-KcsA (construct 7) (UniProt P0A334)
[2] = molecular target: BRIL-AAA-KcsA (construct 2) (UniProt P0A334)
[3] = molecular target: BRIL-AAAA-KcsA (construct 3, 1 turn) (UniProt P0A334)
[4] = molecular target: BRIL-AAAAA-KcsA (construct 4) (UniProt P0A334)
[5] = molecular target: BRIL-AARAAA-KcsA (construct 5) (UniProt P0A334)
[6] = molecular target: BRIL-AARAAAA-KcsA (construct 6) (UniProt P0A334)

Substance: BRIL-2turn-KcsA (construct 7) (from UniProt P0A334 24-160)
stoichiometry N [1]: 4

Substance: BRIL-AAAAA-KcsA (construct 4) (from UniProt P0A334 24-160)
stoichiometry N [4]: 4

Substance: BRIL-AARAAAA-KcsA (construct 6) (from UniProt P0A334 24-160)
stoichiometry N [6]: 4

Continued, values first:

stoichiometry N [2]: 4
Substance: BRIL-AAA-KcsA (construct 2) (from UniProt P0A334 24-160)

stoichiometry N [3]: 4
Substance: BRIL-AAAA-KcsA (construct 3, 1 turn) (from UniProt P0A334 24-160)

stoichiometry N [5]: 4
Substance: BRIL-AARAAA-KcsA (construct 5) (from UniProt P0A334 24-160)

From publication PMC7101349
